Data on 2 molecules can be found in patent US8765674B2, “Methods useful in the treatment of bone resorption diseases” (NPS Pharmaceuticals, Inc., priority 1997, dated 2014).

For test [1], the system named is patient with osteoporosis. As to conditions: during therapy with PTH, cited from earlier work.
For test [2], the system named is Postmenopausal females with osteoporosis. The test can be described thus: Clinical study: PTH (1-84) given for one year, bone mineral density. In kind it is in vivo, human. The settings on record: subcutaneous injection, 50 to 100 micrograms daily. From the text: Postmenopausal females (n=172) with osteoporosis were given intact human PTH (1-84), as a subcutaneous injection, for one year in doses from 50 to 100 micrograms daily. It was shown that bone mineral density of the spine was increased in the lumbar spine, on the average by 8%. Increases in individual patients were considerably more than 10%. The changes of the femoral neck were smaller and ranged from 1 to 3%.

B1: PTH: Parathyroid hormone, an 84 amino acid polypeptide normally secreted from the parathyroid glands (protein, UniProt P01270 32-115, looked up)
Parathyroid hormone: SVSEIQLMHNLGKHLNSMERVEWLRKKLQDVHNFVALGAPLAPRDAGSQRPRKKEDNVLVESHEKSLGEADKADVNVLTKAKSQ
With B1, the activation frequency entry in test [1] (calculated) is on record as “doubled”. The “bone mineral density in the femoral neck” value in test [1] is reported as “largely unaffected”.

B2: intact human PTH (1-84): intact human parathyroid hormone, full-length 84 amino acid polypeptide (protein, UniProt P01270 32-115, looked up)
Parathyroid hormone: B1 Parathyroid hormone
With B2, the “increases of lumbar spine bone mineral density in individual patients” value in test [2] is reported as “more than 10%”. The “increase of bone mineral density of the lumbar spine, on the average” value in test [2] (n=172) is 8%.
